Our source for the Kd and Ki values is publication PMC3522258.

For one data set, the target named is T1, CTD (human, UniProt O95786 792-925).
T1 sequence: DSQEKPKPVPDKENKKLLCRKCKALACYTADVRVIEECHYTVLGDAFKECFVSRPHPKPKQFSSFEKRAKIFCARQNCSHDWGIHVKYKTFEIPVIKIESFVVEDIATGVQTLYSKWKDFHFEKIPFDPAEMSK
Kind of data set: EMSA. (In general: Mobility shift assays separate free from complexed probe on a gel.)

The next data set concerns the target T2, full-length RIG-I (human, UniProt O95786 1-925).
T2 sequence: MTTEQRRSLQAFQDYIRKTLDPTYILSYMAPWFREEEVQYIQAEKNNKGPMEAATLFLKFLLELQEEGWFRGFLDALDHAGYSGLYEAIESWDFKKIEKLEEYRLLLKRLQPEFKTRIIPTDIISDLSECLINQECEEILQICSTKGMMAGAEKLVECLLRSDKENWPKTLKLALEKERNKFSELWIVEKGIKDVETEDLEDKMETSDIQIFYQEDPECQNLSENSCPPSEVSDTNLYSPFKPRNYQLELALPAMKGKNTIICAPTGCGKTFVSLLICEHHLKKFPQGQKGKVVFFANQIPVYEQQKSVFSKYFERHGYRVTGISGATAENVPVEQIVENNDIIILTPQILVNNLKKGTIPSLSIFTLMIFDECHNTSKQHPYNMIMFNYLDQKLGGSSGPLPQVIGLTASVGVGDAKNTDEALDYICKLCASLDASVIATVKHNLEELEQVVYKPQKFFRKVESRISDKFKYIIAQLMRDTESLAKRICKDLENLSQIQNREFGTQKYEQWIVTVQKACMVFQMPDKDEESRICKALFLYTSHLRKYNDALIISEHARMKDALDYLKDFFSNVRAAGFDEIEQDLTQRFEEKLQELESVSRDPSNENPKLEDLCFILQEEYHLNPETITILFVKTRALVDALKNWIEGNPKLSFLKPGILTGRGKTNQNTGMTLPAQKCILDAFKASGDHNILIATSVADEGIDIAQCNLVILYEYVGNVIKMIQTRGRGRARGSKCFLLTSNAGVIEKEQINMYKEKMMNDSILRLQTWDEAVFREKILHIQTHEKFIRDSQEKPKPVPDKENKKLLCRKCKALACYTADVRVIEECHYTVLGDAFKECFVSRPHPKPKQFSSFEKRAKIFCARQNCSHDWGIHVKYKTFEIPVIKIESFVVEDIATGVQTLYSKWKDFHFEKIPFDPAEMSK
Kind of data set: EMSA.

The target of data set [1] is T3, RIG-I (ΔCARDs) (human, UniProt O95786 229-925).
T3 sequence: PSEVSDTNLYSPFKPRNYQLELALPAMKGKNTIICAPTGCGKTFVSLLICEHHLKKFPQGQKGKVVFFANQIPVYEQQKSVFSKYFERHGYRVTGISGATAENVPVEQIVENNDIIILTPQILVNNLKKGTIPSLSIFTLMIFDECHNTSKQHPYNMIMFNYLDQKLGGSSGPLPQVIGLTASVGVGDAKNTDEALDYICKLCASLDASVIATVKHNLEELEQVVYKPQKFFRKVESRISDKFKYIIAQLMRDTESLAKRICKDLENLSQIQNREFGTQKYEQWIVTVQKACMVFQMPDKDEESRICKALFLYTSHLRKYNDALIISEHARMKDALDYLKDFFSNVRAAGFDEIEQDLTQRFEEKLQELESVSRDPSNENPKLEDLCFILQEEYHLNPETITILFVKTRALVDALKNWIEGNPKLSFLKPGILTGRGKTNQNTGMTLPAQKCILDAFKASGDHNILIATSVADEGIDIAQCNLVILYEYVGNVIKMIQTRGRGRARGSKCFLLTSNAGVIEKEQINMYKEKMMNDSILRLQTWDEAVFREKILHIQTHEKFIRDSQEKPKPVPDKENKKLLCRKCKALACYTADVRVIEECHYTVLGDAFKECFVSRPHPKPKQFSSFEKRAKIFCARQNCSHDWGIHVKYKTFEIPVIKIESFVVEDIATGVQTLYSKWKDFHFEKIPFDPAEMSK
The experiment in a line: EMSA.

The next data set has as its target T4, HD (helicase domain) (human, UniProt O95786 229-793).
T4 sequence: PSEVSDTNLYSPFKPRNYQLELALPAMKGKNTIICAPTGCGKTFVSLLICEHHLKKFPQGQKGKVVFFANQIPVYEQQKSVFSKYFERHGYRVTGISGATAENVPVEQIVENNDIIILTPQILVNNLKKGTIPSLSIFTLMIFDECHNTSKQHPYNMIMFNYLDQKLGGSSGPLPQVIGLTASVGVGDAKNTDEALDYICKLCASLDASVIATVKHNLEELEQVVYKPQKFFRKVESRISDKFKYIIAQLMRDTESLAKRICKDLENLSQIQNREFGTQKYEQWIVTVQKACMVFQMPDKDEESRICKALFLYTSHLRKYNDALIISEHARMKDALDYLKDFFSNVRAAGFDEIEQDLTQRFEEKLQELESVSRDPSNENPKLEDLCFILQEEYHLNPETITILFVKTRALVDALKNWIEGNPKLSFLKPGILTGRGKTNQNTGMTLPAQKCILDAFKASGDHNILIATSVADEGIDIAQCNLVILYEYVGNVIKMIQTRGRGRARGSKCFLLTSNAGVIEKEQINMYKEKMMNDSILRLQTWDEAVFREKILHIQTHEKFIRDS
The experiment in a line: EMSA.

The target in data set [2] is T3, RIG-I (ΔCARDs). Kind of data set: competition.

B1: 5'-OH 14 dsRNA (dsRNA)
RNA 1: ACCUCCCACCCCCG
RNA 2: CGGGGGUGGGAGGU
modifications: 5'-OH on top strand
A word on the Kd: it is the free concentration of one partner at which half of the binding sites on the other are occupied at equilibrium, for simple one-to-one binding. Read a low Kd as higher affinity. In the case of B1, the Kd is 5900 ± 750 nM with CTD, 20 ± 3 nM with full-length RIG-I and 3.6 ± 0.9 nM with RIG-I (ΔCARDs) [1].

B2: 5'-ppp 14 dsRNA (dsRNA)
RNA 1: ACCUCCCACCCCCG
RNA 2: CGGGGGUGGGAGGU
modifications: 5'-triphosphate on top strand
On to B2, for which the equilibrium dissociation constant (Kd) was 0.5 ± 0.06 nM with CTD, 0.159 ± 0.02 nM with full-length RIG-I, 0.041 ± 0.002 nM in the data set with RIG-I (ΔCARDs) [1] and 760 ± 20 nM with HD (helicase domain).

B3: 5'-OH 14 dsRNA, unlabeled competitor (dsRNA)
RNA 1: ACCUCCCACCCCCG
RNA 2: CGGGGGUGGGAGGU
modifications: 5'-OH
A word on the Ki: it is a dissociation constant, usually derived from enzyme kinetics or from competition with a known ligand. A low value points to a stronger hold on the target. In turn, B3 yielded an inhibition constant Ki in the data set with RIG-I (ΔCARDs) [2] of 13 nM.
